# B1: T30578 (ssDNA)
# DNA: GTGGTGGGTGGGTGGGT
# modifications: PS at first and last linkages, 5-iodo-dU at position 13 [n positions 13 = modified dU]
# B2: T30577 (ssDNA)
# DNA: GTGGTGGGTGGGTGGGT
# modifications: PS at first and last linkages, 5-iodo-dU at position 9 [n positions 9 = modified dU]
# B3: T30576 (ssDNA)
# DNA: GTGGTGGGTGGGTGGGT
# modifications: PS at first and last linkages, 5-iodo-dU at position 5 [n positions 5 = modified dU]
# B4: T30570 (ssDNA)
# DNA: GTGGTGGGTGGGTGGGT
# modifications: PS at first and last linkages, 5-bromo-dU at position 13 [n positions 13 = modified dU]
# B5: T30571 (ssDNA)
# DNA: GTGGTGGGTGGGTGGGT
# modifications: PS at first and last linkages, 5-bromo-dU at positions 5, 9, 13 [n positions 5,9,13 = modified dU]
# B6: T30579 (ssDNA)
# DNA: GTGGTGGGTGGGTGGGT
# modifications: PS at first and last linkages, 5-iodo-dU at positions 5, 9, 13 [n positions 5,9,13 = modified dU]
# Columns and labels:
# [1] = molecular target: T1, HIV-1 integrase wild-type (IN1-288) (HIV-1, UniProt P12497 P12497:1148-1435); assay: inhibition; first activity column (headed strand transfer); other column 0.040; conditions: G4
# [2] = molecular target: T1, HIV-1 integrase wild-type (IN1-288); assay: inhibition; first activity column (headed strand transfer); other column 0.050
# [3] = molecular target: T1, HIV-1 integrase wild-type (IN1-288); assay: inhibition; first activity column (headed strand transfer, order matches 3'-processing elsewhere); other column 0.750; Table B-7 gives >0.5 for both; conditions: G4
# [4] = molecular target: T1, HIV-1 integrase wild-type (IN1-288); assay: inhibition; first activity column (headed strand transfer); other column 0.100; conditions: G4
# [5] = molecular target: T1, HIV-1 integrase wild-type (IN1-288); assay: inhibition; 3'-processing; strand transfer 0.125 uM; conditions: G4
# [6] = molecular target: T1, HIV-1 integrase wild-type (IN1-288); assay: inhibition; first activity column (headed strand transfer); other column 0.055; conditions: G4
# [7] = molecular target: T1, HIV-1 integrase wild-type (IN1-288); assay: inhibition; first activity column (headed strand transfer); other column 0.084; conditions: G4
# [8] = molecular target: T1, HIV-1 integrase wild-type (IN1-288); assay: inhibition; 3'-processing; strand transfer 0.023 uM; conditions: G4
# [9] = molecular target: T2, gp120 envelope glycoprotein (HIV-1, UniProt P04578 P04578:33-511); assay: competition; ID50, gp120/CD4 ELISA; conditions: tags: gp120 capture ELISA kit
# [10] = molecular target: CD4 (UniProt P01730 P01730:26-396); assay: competition; ID50, oligo with immobilized CD4; conditions: tags: immobilized, gp120 capture ELISA kit
# [11] = molecular target: T1, HIV-1 integrase wild-type (IN1-288); assay: inhibition; 3'-processing (+/-26); strand transfer 134 nM; conditions: G4
# [12] = molecular target: T1, HIV-1 integrase wild-type (IN1-288); assay: inhibition; first activity column (headed strand transfer); other column 0.095; conditions: G4
# [13] = molecular target: T1, HIV-1 integrase wild-type (IN1-288); assay: inhibition; first activity column (headed strand transfer, order matches 3'-processing in Table D-1); other column 0.600; conditions: G4
# [14] = molecular target: T1, HIV-1 integrase wild-type (IN1-288); assay: inhibition; first activity column (headed strand transfer); other column 0.013
# [15] = molecular target: T1, HIV-1 integrase wild-type (IN1-288); assay: inhibition; first activity column (headed strand transfer); other column 0.500; conditions: G4
# [16] = molecular target: T1, HIV-1 integrase wild-type (IN1-288); assay: inhibition; first activity column (headed strand transfer); other column 0.156; conditions: G4
# [17] = molecular target: T1, HIV-1 integrase wild-type (IN1-288); assay: inhibition; first activity column (headed strand transfer); other column 0.070; conditions: G4
# [18] = molecular target: T2, gp120 envelope glycoprotein; assay: competition; ID50, gp120/CD4 ELISA, preincubated with gp120; conditions: tags: gp120 capture ELISA kit
# [19] = molecular target: T1, HIV-1 integrase wild-type (IN1-288); assay: inhibition; first activity column (headed strand transfer); other column 0.030; conditions: G4
# [20] = molecular target: T1, HIV-1 integrase wild-type (IN1-288); assay: inhibition; first activity column (headed strand transfer); other column 0.610; Table C-2 prints 3' end ggg; conditions: G4
# [21] = molecular target: T1, HIV-1 integrase wild-type (IN1-288); assay: inhibition; first activity column (headed strand transfer); other column 0.120; conditions: G4
# [22] = molecular target: T1, HIV-1 integrase wild-type (IN1-288); assay: inhibition; 3'-processing; strand transfer 0.070 uM; conditions: G4
# [23] = molecular target: T1, HIV-1 integrase wild-type (IN1-288); assay: inhibition; first activity column (headed strand transfer); other column 0.016; conditions: G4, loop 3 inverted
# [24] = molecular target: T1, HIV-1 integrase wild-type (IN1-288); assay: inhibition; 3'-processing; strand transfer 0.123 uM; conditions: one tetrad disrupted
# [25] = molecular target: T1, HIV-1 integrase wild-type (IN1-288); assay: inhibition; first activity column (headed strand transfer); other column 0.134; conditions: G4
# [26] = molecular target: T1, HIV-1 integrase wild-type (IN1-288); assay: inhibition; 3'-processing (+/-17); strand transfer 24 nM; Table C-2 0.060/0.020 uM; conditions: intramolecular G4
# [27] = molecular target: T1, HIV-1 integrase wild-type (IN1-288); assay: inhibition; 3'-processing; strand transfer 620 nM; conditions: G4
# [28] = molecular target: T1, HIV-1 integrase wild-type (IN1-288); assay: inhibition; first activity column (headed strand transfer); other column 0.062; conditions: G4
# [29] = molecular target: T1, HIV-1 integrase wild-type (IN1-288); assay: inhibition; first activity column (headed strand transfer); other column 0.060; conditions: G4
binder,measurement,setting,value
"GTGGTGGGTGGGTGGGT (ssDNA, PS at first and last linkages, capital T = C5-propynyl dU) [T30700]",IC50,[1],82 nM
B1,IC50,[2]; G4,60 nM
"GGTTGGTGTGGTTGG (ssDNA, PS at first and last linkages (Table B-7; Table C-1 lists it as PT)) [T30659 thrombin-binding aptamer pPT]",IC50,[3],870 nM
"GTGGTGGGTGGGCGGGT (ssDNA, PS at first and last linkages) [T30745]",IC50,[4],100 nM
"GTGGTGGGTGGGTGGGT (ssDNA, all phosphodiester) [T30175]",IC50,[5],170 nM
B2,IC50,[6],65 nM
"GUGGUGGGUGGGUGGGU (ssRNA, PS at first and last linkages, RNA sugars) [T30661]",IC50,[7],111 nM
"GGTTGGTGTGGTTGG (ssDNA, all PS (Table B-7; Table C-1 lists it as pPT)) [T30341 thrombin-binding aptamer PT]",IC50,[8],42 nM
"GATCCATGTCAGTGACAC (ssDNA, all PS) [1232 random PT]",IC50,[9],> 10 µM
same,IC50,[10],> 10000 nM
"GTGGTGGGTGTGGTGGGT (ssDNA, PS at first and last linkages) [T30676]",IC50,[11],148 nM
"GGGTGGGTGGGTGGGT (ssDNA, PS at first and last linkages, capital T = C5-propynyl dU) [T30719]",IC50,[6],55 nM
"GTGGTGGGTGGGTGGGT (ssDNA, 3'-cholesterol via triglycyl linker) [T30075]",IC50,[12],110 nM
"GTGGTTGGTGTGGTTGG (ssDNA, PS at first and last linkages) [T30673]",IC50,[13],790 nM
"GTGGTGGGGTGGTGGGT (ssDNA, PS at first and last linkages) [T30697]",IC50,"[14]; G4, loop 2 inverted",130 nM
"GTGGTGGGTGTGGTTGGT (ssDNA, PS at first and last linkages) [T30675]",IC50,[15],485 nM
B3,IC50,[2]; G4,65 nM
"GTGGTTGGTGGGTGGGT (ssDNA, PS at first and last linkages) [T30679]",IC50,[16],159 nM
"GTGGGTGGTGGGGTGGT (ssDNA, PS at first and last linkages) [T30699]",IC50,"[2]; G4, loops 1 and 3 inverted",136 nM
B4,IC50,[17],90 nM
"GTGGTGGGTGGGTGGGTGGTGGGTGGTGGTTGTGGGTGGGTGGTG (ssDNA, all PS) [I100-21]",IC50,[18],70 nM
same,IC50,[10],48 nM
B5,IC50,[2]; G4,55 nM
"GTGGTGGGTGGGTGGGT (ssDNA, PS at first and last linkages, capital T = C5-propynyl dU) [T30701]",IC50,[19],72 nM
"GTGGTTGGTGTGGTTGGT (ssDNA, PS at first and last linkages) [T30674]",IC50,[20],760 nM
"GTGGTGGGTGGGTTGGT (ssDNA, PS at first and last linkages) [T30678]",IC50,[21],98 nM
"GTGGTGGGTGGGTGGGT (ssDNA, all PS) [T30038]",IC50,[22],90 nM
"GTGGTGGGTGGGGTGGT (ssDNA, PS at first and last linkages) [T30698]",IC50,[23],150 nM
B6,IC50,[6],60 nM
"GTGATGGGTGGGTGGGT (ssDNA, PS at first and last linkages) [T30526]",IC50,[24],200 nM
"GATCCATGTCAGTGACAC (ssDNA, phosphodiester, amine) [1231 random]",IC50,[9],> 100 µM
same,IC50,[10],> 50000 nM
"GTGGGTGGTGGGTGGGT (ssDNA, PS at first and last linkages) [T30696]",IC50,"[14]; G4, loop 1 inverted",122 nM
"GTGGGTGGTGGGTGGGT (ssDNA, PS at first and last linkages, capital T = C5-propynyl dU) [T30722]",IC50,[25],129 nM
"GGGTGGGTGGGTGGGT (ssDNA, PS at first and last linkages) [T30695]",IC50,[26],43 nM
"GTGGTTGGTGGGTTGGT (ssDNA, PS at first and last linkages) [T30677]",IC50,[27],725 nM
"GGGGTGGTGGGTGGGT (ssDNA, PS at first and last linkages, capital T = C5-propynyl dU) [T30720]",IC50,[28],59 nM
"GGGTGGGTGGGTGGGTGG (ssDNA, all PS) [1174]",IC50,[9],0.09 µM
"GTGGTGGGCGGGTGGGT (ssDNA, PS at first and last linkages) [T30744]",IC50,[29],105 nM
"GTTGGGGGTTGTTGGTGGGGTGGTGG (ssDNA, all PS) [I100-12]",IC50,[18],80 nM
same,IC50,[10],475 nM
"GTGGTGGGTGGGTGGGT (ssDNA, PS at first and last linkages, capital T = C5-propynyl dU) [T30702]",IC50,[19],32 nM

# Reference: patent publication US6323185, “Anti-viral guanosine-rich oligonucleotides and method of treating HIV” (The United States of America as represented by the …)
